Earlier results on 5 molecules are cited in US8853185B2, “Coferons and methods of making and using them” (Cornell University, priority 2008, dated 2014).

As a reminder, the Kd is a measure of binding affinity in units of concentration.

What all share (conditions): read-out: DISSOCIATION CONSTANT (Kd)
The target of data set [1] is T1, MKK4 (Homo sapiens, UniProt P45985).
T1 sequence (P45985 1-399): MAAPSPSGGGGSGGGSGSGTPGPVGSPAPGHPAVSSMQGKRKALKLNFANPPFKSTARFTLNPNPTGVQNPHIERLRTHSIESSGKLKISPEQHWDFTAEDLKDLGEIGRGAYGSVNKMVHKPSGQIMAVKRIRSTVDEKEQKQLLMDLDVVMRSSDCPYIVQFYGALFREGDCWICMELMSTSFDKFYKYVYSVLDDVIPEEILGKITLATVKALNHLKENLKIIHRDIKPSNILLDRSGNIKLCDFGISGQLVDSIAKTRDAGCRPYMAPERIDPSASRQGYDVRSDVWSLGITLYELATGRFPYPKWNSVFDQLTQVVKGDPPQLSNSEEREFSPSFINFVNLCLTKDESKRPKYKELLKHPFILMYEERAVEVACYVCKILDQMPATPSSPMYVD

Data set [2] addresses T2, NF2 (Homo sapiens, UniProt P35240).
T2 sequence (P35240 1-595): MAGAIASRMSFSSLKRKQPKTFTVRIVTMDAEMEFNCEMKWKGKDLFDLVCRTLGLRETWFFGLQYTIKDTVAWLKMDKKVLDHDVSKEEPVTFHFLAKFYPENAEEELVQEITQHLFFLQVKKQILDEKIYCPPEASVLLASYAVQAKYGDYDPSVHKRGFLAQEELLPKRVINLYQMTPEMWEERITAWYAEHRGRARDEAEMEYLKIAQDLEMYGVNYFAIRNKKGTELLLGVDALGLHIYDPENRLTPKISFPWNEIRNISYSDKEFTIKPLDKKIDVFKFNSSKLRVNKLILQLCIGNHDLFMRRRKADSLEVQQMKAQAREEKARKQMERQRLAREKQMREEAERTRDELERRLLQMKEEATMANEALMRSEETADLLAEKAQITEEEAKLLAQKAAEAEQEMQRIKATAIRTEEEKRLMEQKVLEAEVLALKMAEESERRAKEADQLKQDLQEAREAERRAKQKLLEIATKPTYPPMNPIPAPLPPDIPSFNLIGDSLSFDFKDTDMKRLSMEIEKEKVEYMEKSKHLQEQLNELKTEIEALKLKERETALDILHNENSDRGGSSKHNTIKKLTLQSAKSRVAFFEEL

Data set [3] addresses GABP β (Homo sapiens, UniProt Q06547).
The target in data set [4] is p53 (Homo sapiens, UniProt P04637).
p53, sequence (P04637 whole entry, species assumed): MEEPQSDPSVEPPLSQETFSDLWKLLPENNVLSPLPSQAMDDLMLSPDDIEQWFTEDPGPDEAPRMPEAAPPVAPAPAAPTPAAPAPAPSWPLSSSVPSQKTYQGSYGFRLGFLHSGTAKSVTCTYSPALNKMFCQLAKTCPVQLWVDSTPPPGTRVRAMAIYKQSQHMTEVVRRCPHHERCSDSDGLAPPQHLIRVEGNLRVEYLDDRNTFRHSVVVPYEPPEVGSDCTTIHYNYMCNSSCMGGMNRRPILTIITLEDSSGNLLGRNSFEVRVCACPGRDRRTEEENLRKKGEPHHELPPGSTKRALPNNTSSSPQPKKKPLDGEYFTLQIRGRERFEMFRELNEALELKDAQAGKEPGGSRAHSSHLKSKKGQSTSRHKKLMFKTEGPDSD
In data set [5] the target is T3, ASK1 (Homo sapiens, UniProt Q99683).
T3 sequence (Q99683 1-1374): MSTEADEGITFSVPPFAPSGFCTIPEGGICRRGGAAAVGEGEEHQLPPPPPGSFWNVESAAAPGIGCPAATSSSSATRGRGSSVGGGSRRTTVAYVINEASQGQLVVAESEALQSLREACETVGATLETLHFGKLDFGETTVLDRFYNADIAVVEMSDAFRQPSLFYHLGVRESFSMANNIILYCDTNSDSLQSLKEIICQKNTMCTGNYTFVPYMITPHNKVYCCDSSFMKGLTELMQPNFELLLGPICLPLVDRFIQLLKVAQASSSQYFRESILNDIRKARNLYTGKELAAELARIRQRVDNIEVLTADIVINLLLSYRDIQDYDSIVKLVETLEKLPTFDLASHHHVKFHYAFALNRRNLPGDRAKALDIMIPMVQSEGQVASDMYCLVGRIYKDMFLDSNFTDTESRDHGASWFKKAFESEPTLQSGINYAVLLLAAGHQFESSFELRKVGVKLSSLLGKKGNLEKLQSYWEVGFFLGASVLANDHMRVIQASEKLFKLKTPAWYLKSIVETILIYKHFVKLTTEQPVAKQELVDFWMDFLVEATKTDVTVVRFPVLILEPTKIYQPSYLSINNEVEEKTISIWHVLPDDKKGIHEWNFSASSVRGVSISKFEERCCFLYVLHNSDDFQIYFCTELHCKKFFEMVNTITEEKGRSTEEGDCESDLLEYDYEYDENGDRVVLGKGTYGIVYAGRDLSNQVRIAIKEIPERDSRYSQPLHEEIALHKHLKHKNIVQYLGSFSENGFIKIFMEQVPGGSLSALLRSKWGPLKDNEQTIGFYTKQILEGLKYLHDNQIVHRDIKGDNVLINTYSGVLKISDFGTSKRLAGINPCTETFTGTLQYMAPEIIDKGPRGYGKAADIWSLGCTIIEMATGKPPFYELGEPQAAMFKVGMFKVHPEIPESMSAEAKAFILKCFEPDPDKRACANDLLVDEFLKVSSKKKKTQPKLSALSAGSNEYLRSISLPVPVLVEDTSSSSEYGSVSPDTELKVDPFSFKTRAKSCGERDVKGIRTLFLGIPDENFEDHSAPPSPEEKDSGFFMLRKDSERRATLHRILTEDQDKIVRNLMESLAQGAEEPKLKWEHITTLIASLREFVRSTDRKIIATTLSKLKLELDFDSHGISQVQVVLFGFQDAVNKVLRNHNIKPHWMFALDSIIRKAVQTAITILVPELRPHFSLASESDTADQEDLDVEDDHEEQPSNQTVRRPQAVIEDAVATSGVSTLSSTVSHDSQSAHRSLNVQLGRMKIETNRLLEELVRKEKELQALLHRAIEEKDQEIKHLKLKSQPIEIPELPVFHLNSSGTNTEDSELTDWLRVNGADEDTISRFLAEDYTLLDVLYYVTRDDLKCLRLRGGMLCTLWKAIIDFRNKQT

GABP β, sequence (Q06547 whole entry): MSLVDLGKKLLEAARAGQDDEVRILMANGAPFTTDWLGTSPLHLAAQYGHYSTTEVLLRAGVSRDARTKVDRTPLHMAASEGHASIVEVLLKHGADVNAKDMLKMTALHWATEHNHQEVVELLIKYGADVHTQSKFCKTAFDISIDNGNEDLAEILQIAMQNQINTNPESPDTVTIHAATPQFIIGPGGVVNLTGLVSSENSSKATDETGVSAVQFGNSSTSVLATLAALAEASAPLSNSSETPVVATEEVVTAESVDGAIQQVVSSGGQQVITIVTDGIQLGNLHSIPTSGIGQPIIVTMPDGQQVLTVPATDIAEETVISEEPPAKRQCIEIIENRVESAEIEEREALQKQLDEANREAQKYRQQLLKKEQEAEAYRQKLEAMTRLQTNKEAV

B1: JNK3: binding partner of MKK4 (protein, UniProt P53779 1-464, looked up)
Mitogen-activated protein …: MSLHFLYYCSEPTLDVKIAFCQGFDKQVDVSYIAKHYNMSKSKVDNQFYSVEVGDSTFTVLKRYQNLKPIGSGAQGIVCAAYDAVLDRNVAIKKLSRPFQNQTHAKRAYRELVLMKCVNHKNIISLLNVFTPQKTLEEFQDVYLVMELMDANLCQVIQMELDHERMSYLLYQMLCGIKHLHSAGIIHRDLKPSNIVVKSDCTLKILDFGLARTAGTSFMMTPYVVTRYYRAPEVILGMGYKENVDIWSVGCIMGEMVRHKILFPGRDYIDQWNKVIEQLGTPCPEFMKKLQPTVRNYVENRPKYAGLTFPKLFPDSLFPADSEHNKLKASQARDLLSKMLVIDPAKRISVDDALQHPYINVWYDPAEVEAPPPQIYDKQLDEREHTIEEWKELIYKEVMNSEEKTKNGVVKGQPSPSGAAVNSSESLPPSSSVNDISSMSTDQTLASDTDSSLEASAGPLGCCR
As to B1, the Kd in data set [1] was 35000 nM.

B2: MPP1: binding partner of NF2 (protein, UniProt Q00013 2-466, looked up)
55 kDa erythrocyte membrane …: TLKASEGESGGSMHTALSDLYLEHLLQKRSRPEAVSHPLNTVTEDMYTNGSPAPGSPAQVKGQEVRKVRLIQFEKVTEEPMGITLKLNEKQSCTVARILHGGMIHRQGSLHVGDEILEINGTNVTNHSVDQLQKAMKETKGMISLKVIPNQQSRLPALQMFMRAQFDYDPKKDNLIPCKEAGLKFATGDIIQIINKDDSNWWQGRVEGSSKESAGLIPSPELQEWRVASMAQSAPSEAPSCSPFGKKKKYKDKYLAKHSSIFDQLDVVSYEEVVRLPAFKRKTLVLIGASGVGRSHIKNALLSQNPEKFVYPVPYTTRPPRKSEEDGKEYHFISTEEMTRNISANEFLEFGSYQGNMFGTKFETVHQIHKQNKIAILDIEPQTLKIVRTAELSPFIVFIAPTDQGTQTEALQQLQKDSEAIRSQYAHYFDLSLVNNGVDETLKKLQEAFDQACSSPQWVPVSWVY
As to B2, the Kd in data set [2] is 3.7 nM.

B3: GABP β: binding partner of GABP β (protein, UniProt Q06547 2-395, looked up)
GA-binding protein subunit …: SLVDLGKKLLEAARAGQDDEVRILMANGAPFTTDWLGTSPLHLAAQYGHYSTTEVLLRAGVSRDARTKVDRTPLHMAASEGHASIVEVLLKHGADVNAKDMLKMTALHWATEHNHQEVVELLIKYGADVHTQSKFCKTAFDISIDNGNEDLAEILQIAMQNQINTNPESPDTVTIHAATPQFIIGPGGVVNLTGLVSSENSSKATDETGVSAVQFGNSSTSVLATLAALAEASAPLSNSSETPVVATEEVVTAESVDGAIQQVVSSGGQQVITIVTDGIQLGNLHSIPTSGIGQPIIVTMPDGQQVLTVPATDIAEETVISEEPPAKRQCIEIIENRVESAEIEEREALQKQLDEANREAQKYRQQLLKKEQEAEAYRQKLEAMTRLQTNKEAV
Consider B3, for which the dissociation constant Kd in data set [3] is 600 nM.

B4: HmtSSB: binding partner of p53 (protein, UniProt Q04837 17-148, looked up)
Single-stranded DNA-binding …: ESETTTSLVLERSLNRVHLLGRVGQDPVLRQVEGKNPVTIFSLATNEMWRSGDSEVYQLGDVSQKTTWHRISVFRPGLRDVAYQYVKKGSRIYLEGKIDYGEYMDKNNVRRQATTIIADNIIFLSDQTKEKE
B4: in data set [4], the equilibrium dissociation constant (Kd) was 12700 nM.

B5: ASK1: binding partner of ASK1 (protein, UniProt Q99683 1-1374, looked up)
Mitogen-activated protein …: MSTEADEGITFSVPPFAPSGFCTIPEGGICRRGGAAAVGEGEEHQLPPPPPGSFWNVESAAAPGIGCPAATSSSSATRGRGSSVGGGSRRTTVAYVINEASQGQLVVAESEALQSLREACETVGATLETLHFGKLDFGETTVLDRFYNADIAVVEMSDAFRQPSLFYHLGVRESFSMANNIILYCDTNSDSLQSLKEIICQKNTMCTGNYTFVPYMITPHNKVYCCDSSFMKGLTELMQPNFELLLGPICLPLVDRFIQLLKVAQASSSQYFRESILNDIRKARNLYTGKELAAELARIRQRVDNIEVLTADIVINLLLSYRDIQDYDSIVKLVETLEKLPTFDLASHHHVKFHYAFALNRRNLPGDRAKALDIMIPMVQSEGQVASDMYCLVGRIYKDMFLDSNFTDTESRDHGASWFKKAFESEPTLQSGINYAVLLLAAGHQFESSFELRKVGVKLSSLLGKKGNLEKLQSYWEVGFFLGASVLANDHMRVIQASEKLFKLKTPAWYLKSIVETILIYKHFVKLTTEQPVAKQELVDFWMDFLVEATKTDVTVVRFPVLILEPTKIYQPSYLSINNEVEEKTISIWHVLPDDKKGIHEWNFSASSVRGVSISKFEERCCFLYVLHNSDDFQIYFCTELHCKKFFEMVNTITEEKGRSTEEGDCESDLLEYDYEYDENGDRVVLGKGTYGIVYAGRDLSNQVRIAIKEIPERDSRYSQPLHEEIALHKHLKHKNIVQYLGSFSENGFIKIFMEQVPGGSLSALLRSKWGPLKDNEQTIGFYTKQILEGLKYLHDNQIVHRDIKGDNVLINTYSGVLKISDFGTSKRLAGINPCTETFTGTLQYMAPEIIDKGPRGYGKAADIWSLGCTIIEMATGKPPFYELGEPQAAMFKVGMFKVHPEIPESMSAEAKAFILKCFEPDPDKRACANDLLVDEFLKVSSKKKKTQPKLSALSAGSNEYLRSISLPVPVLVEDTSSSSEYGSVSPDTELKVDPFSFKTRAKSCGERDVKGIRTLFLGIPDENFEDHSAPPSPEEKDSGFFMLRKDSERRATLHRILTEDQDKIVRNLMESLAQGAEEPKLKWEHITTLIASLREFVRSTDRKIIATTLSKLKLELDFDSHGISQVQVVLFGFQDAVNKVLRNHNIKPHWMFALDSIIRKAVQTAITILVPELRPHFSLASESDTADQEDLDVEDDHEEQPSNQTVRRPQAVIEDAVATSGVSTLSSTVSHDSQSAHRSLNVQLGRMKIETNRLLEELVRKEKELQALLHRAIEEKDQEIKHLKLKSQPIEIPELPVFHLNSSGTNTEDSELTDWLRVNGADEDTISRFLAEDYTLLDVLYYVTRDDLKCLRLRGGMLCTLWKAIIDFRNKQT
Consider B5, for which the dissociation constant (Kd) in data set [5] is 220 nM.
